Literature values, collected in publication doi:10.64898/2025.12.23.696170.

Tests used:
ATR2 (Homo sapiens) = ATR2 (Homo sapiens) (UniProt P50052)
ATR1 (Homo sapiens) = ATR1 (Homo sapiens) (UniProt P30556)
Sequence of UniProt P30556 (P30556 whole entry): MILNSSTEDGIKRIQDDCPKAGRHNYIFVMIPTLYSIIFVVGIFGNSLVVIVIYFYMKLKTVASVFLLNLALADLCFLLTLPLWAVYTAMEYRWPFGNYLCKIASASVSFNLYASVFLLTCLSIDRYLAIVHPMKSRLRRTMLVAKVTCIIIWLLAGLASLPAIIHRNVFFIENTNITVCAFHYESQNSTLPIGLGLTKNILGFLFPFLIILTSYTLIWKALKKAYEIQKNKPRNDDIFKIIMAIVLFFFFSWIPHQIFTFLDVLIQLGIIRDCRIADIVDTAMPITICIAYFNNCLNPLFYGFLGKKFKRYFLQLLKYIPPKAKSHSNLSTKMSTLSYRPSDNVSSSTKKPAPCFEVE

Sequence of UniProt P50052 (P50052 whole entry): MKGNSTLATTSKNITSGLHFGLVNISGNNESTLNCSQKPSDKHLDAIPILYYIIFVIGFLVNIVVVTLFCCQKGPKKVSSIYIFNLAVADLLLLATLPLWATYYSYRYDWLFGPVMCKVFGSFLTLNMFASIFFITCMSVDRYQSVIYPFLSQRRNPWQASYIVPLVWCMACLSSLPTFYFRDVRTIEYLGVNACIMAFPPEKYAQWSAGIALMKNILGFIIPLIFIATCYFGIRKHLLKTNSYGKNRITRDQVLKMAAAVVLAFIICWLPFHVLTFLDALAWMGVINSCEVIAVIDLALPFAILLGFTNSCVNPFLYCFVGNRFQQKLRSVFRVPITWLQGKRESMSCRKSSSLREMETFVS

In the case of Angiotensin II (from UniProt P01019), the Ki (ATR2 (Homo sapiens)) is given as 300 pM and the Ki (ATR1 (Homo sapiens)) is given as 200 pM.
